Measurements from publication PMC7782405 (Molecular Imaging and Biology, 2020).

Assays:
U-87MG cells = assay: Cell internalization assay; type: cell-based, human; conditions: for specific surface-bound fraction: all time points
Procedure: For cell internalization, U-87MG cells were seeded at a density of 10^6 cells per well in 6-well plates and incubated overnight with medium (Dulbecco modified Eagle medium with GlutaMAX containing 10 % fetal bovine serum, 1 % 10,000 U ml^−1 penicillin and 10,000 U ml^−1 streptomycin, 1 % sodium-pyruvate 100 mM). After 24 h, the medium was removed and the cells were washed with PBS. Approximately 2.5 pmol of [^64Cu]Cu-8 and [^64Cu]Cu-9 was added to the cells (in triplicates) to give a final volume of 1.5 ml PBS in each well followed by incubation for 1 h at 37 °C, 5 % CO2. […] At each time point, the internalization was stopped by removing the medium and washing the cells twice with ice-cold PBS. To remove the receptor-bound radioligand, an acid wash was carried out twice with a 0.1 M glycine buffer pH 2.8 for 5 min on ice. Finally, cells were solubilized with 1 N NaOH. Radioactivity of cell fractions (supernatant, receptor-bound, and internalized) was measured by a Perkin Elmer gamma counter. Experiments were performed twice in triplicate.

in vivo [1] = assay: in vivo; set-up: species or system mice; conditions: female, athymic Balb/c nude, mouse, in vivo, iv, total radioactivity
Procedure: (§1) All animal experiments complied with the current laws of the Federal Republic of Germany and were conducted according to German Animal welfare guidelines. Normal female athymic Balb/c nude mice (17–20 g, 4–6 weeks old) were obtained from Janvier SAS (St. Berthevin Cedex, France). Mice were provided with food and water ad libitum. U-87MG tumors were induced on the right shoulder by sub-cutaneous injection of 5 × 10^6 cells in a 100 μl cell suspension of a 1:1 v/v mixture of media with reconstituted basement membrane (GFR BD Matrigel™, Corning BV, Amsterdam, Holland). For each compound, a total of three animals were injected with [^64Cu]Cu-8 and [^64Cu]Cu-9 (~ 500 pmol, 7–11 MBq) in 100 μl sterile filtered phosphate-buffered saline via a tail vein. At 1 h p.i., animals were sacrificed by isoflurane anesthesia. Organs of interest were dissected, weighed, and assayed for radioactivity in a gamma counter. The percent injected activity per gram (%IA g^−1) for each tissue was calculated by comparison of the tissue counts to a standard sample prepared from the injectate.

[2] = tested on: mice bearing U-87MG xenografts; assay: in vivo; conditions: for reduction of uptake in U-87MG xenografts by co-injection of c(RGDfK) 7: 1 h p.i.
Procedure: as §1

in vivo [3] = assay: in vivo; set-up: species or system mice; conditions: female, athymic Balb/c nude, mouse, iv, total radioactivity, Tumor uptake (PET)
Procedure: (§2) All animal experiments complied with the current laws of the Federal Republic of Germany and were conducted according to German Animal welfare guidelines. Normal female athymic Balb/c nude mice (17–20 g, 4–6 weeks old) were obtained from Janvier SAS (St. Berthevin Cedex, France). Mice were provided with food and water ad libitum. U-87MG tumors were induced on the right shoulder by sub-cutaneous injection of 5 × 10^6 cells in a 100 μl cell suspension of a 1:1 v/v mixture of media with reconstituted basement membrane (GFR BD Matrigel™, Corning BV, Amsterdam, Holland). Static and dynamic PET imaging experiments were conducted on a microPET Focus 120 scanner (Concorde Microsystems). For dynamic PET imaging studies, approximately 5 min prior to recording PET images, mice (n = 3) were anesthetized by inhalation of 2–3 % isoflurane/oxygen gas mixture, fitted with an intravenous catheter and placed on the scanner bed in the prone position. Anesthesia was maintained using 1–2 % isoflurane. For all experiments, animals were injected with 100 μl sterile filtered phosphate-buffered saline formulations pH 7.4 of [^64Cu]Cu-8 and [^64Cu]Cu-9 (~ 500 pmol, 7–11 MBq). Dynamic scans were recorded from 0 to 1 h post radiotracer administration. List-mode data were acquired using a γ-ray energy window of 350–650 keV and a coincidence timing window of 6 ns. For the 24 h p.i. time point, mice were injected 24 h prior to image acquisition and placed in the cages. Five to ten minutes prior to static PET imaging, mice were anesthetized with isoflurane (2–4 % in air) and positioned in the scanner. Animals of the PET imaging studies were included in the ex vivo biodistribution studies (vide infra). Reconstruction was performed using unweighted OSEM2D. Image analysis was performed using AMIDE. Image counts per second per voxel (cps/voxel) were calibrated to activity concentrations (Bq ml^−1) by measuring a 3.5-cm cylinder phantom filled with a known concentration of radioactivity.

[4] = tested on: mice bearing U-87MG xenografts; assay: in vivo; conditions: mouse
Procedure: as §2

[5] = female, athymic Balb/c nude, mouse, in vivo, iv, 1 h

SMILES	receptor-mediated (αvß3-specific) internalization (U-87MG cells; 4 h) [%]	receptor-mediated (αvß3-specific) internalization (U-87MG cells; after 30 min) [%]	specific surface-bound fraction (U-87MG cells) [%]	tissue to tissue ratio at 1 h (in vivo [1]; Tumor-to-blood ratio)	tissue to tissue ratio at 1 h (in vivo [1]; Tumor-to-kidney ratio)	tissue to tissue ratio at 1 h (in vivo [1]; Tumor-to-liver ratio)	tissue to tissue ratio at 1 h (in vivo [1]; Tumor-to-muscle ratio)	reduction of uptake in U-87MG xenografts by co-injection of c(RGDfK) 7 [2] [%]	Tumor-to-blood ratio [2, 5]	Tumor-to-kidney ratio ([2]; mouse, in vivo)	Tumor-to-liver ratio ([2]; mouse, in vivo)	tissue uptake per volume at 1 h (in vivo [3]; 5 mg/kg) [%ID/mL]	tissue uptake per volume at 1 h (in vivo [3]) [%ID/mL]	liver uptake, normal vs blocking groups (PET) [4]	time to maximum tumor accumulation (TAC) [4] [min]	Tumor-to-liver ratio [2, 5]	fold higher tumor uptake compared with the monomer [^64Cu]Cu-8 ([2]; mouse, in vivo)	fold higher tumor uptake compared with the monomeric counterpart (PET images) [4]
Cn1ccnc1CN1CCN(CC(=O)NCCCC[C@@H]2NC(=O)[C@@H](Cc3ccccc3)NC(=O)[C@H](CC(=O)O)NC(=O)CNC(=O)[C@H](CCCNC(=N)N)NC2=O)CCN(Cc2nccn2C)CC1 [[^64Cu]Cu-8, metal not drawn]	1.4 ± 0.1	0.2 ± 0.1	≤ 0.1	15 ± 3.05	0.86 ± 0.04	0.83 ± 0.1	10.5 ± 4.79	89	14.37	0.86	0.84	0.91 ± 0.39	2.61 ± 0.65	No significant differences	5 to 10			
N=C(N)NCCC[C@@H]1NC(=O)[C@H](CCCCNC(=O)CCCCn2ccnc2CN2CCN(Cc3nccn3CCCCC(=O)NCCCC[C@@H]3NC(=O)[C@@H](Cc4ccccc4)NC(=O)[C@H](CC(=O)O)NC(=O)CNC(=O)[C@H](CCCNC(=N)N)NC3=O)CCN(Cc3nccn3CCCCC(=O)NCCCC[C@@H]3NC(=O)[C@@H](Cc4ccccc4)NC(=O)[C@H](CC(=O)O)NC(=O)CNC(=O)[C@H](CCCNC(=N)N)NC3=O)CC2)NC(=O)[C@@H](Cc2ccccc2)NC(=O)[C@H](CC(=O)O)NC(=O)CNC1=O [[^64Cu]Cu-9, metal not drawn]	8.7 ± 0.6	0.7 ± 0.2	≤ 0.1		0.73 ± 0.11	1.03 ± 0.26	14.1 ± 3.83	60		0.73		2.18 ± 0.66	4.42 ± 1.1	No significant differences	5 to 10	0.99	~ 2.5 fold	~ 2 fold
